Here are results for 16 sequences from the DeepSol protein solubility set.

This series can be described thus: soluble on expression in E. coli; label from the status in PepcDB or PDB records.
Take “MGSDKIHHHHHHMGTHTEAMPSTTFAQTAVLSQRQRATLNALSAFPQGAQVSEIAASLGLHVNTVRGHLEELVTKNLVRTAPLPSTGRGRPVLMYHATSATPETVAQEYLSLISLLIQHIDLRQPDEIDEVAKVLGKQWAHSIFADHHLEELNGEQTLITLINYLRHLGFDPEVEKTQDPTTSMLQLRTCPFGSMAHAPLSFVCRAHEGMLSAVEKTGGISFELTPLSAPHQCSIVAQLHGNETIHRQRGEEHPHAGHR”: the “soluble on expression in E. coli” value was “not soluble”. The same measure for “MSQVTRVYAGRLAGMIVRGPDTDAIGRVRDVIVNVRPNGQPSRVLGLVVEMMNNRKIFLPMLRVAAIEPQEITLVSGSVSLRAYKPRNGEVAIIADIVGSKVHIDDPELDHLHGRPVEVADIELERTRTRDWAISRVAVIGERPKFGRRPELFTCPWSHVHGISAGGVGITDAAAELIAEFEDMRPADIATVLYELPDAQRANVAKELDDDRLADVLQEMSEDRQAELIETLDIERAADVLEEMDPDDAADLLGELDDDKADVLLELMDPEESAPVRRLMSFSPDTVGALMTPEPLILSPQTTVAEALALARNPDLPTSLASIVFVVRPPTATPTGKYLGCVHLQKLLREPPSELVSGILDPDLPPLWASDSQETAARYFATYNLVCGPVVDNDNHLLGAVAVDDLLDHMLPDDWRDTGIRPDETPKEV”: “not soluble”; for “MGSDKIHHHHHHMSTLLQHVNLTEFVDVARQLGLDPYRQLRQAGIRPTALVDPEMRVPAKSVMQLLEDSAQLAGLEDLGLRVAEARELTTLGPLWTVMREGATLRNALGAMARYLHLLNEALDLRLEEVGDTAVVRLEFLVSVDGSMRQSTEFIICLWFRLFKLLSGDAWKPRSVCFTHAAPASLATHRRVFGVPVRFHQDFDGILLSAADLDVAGTTSDTALGRHAREFLDTKLAQSDSTMPDKVRKLVFALLPTGECGAEQVARQLGIDRKTMHRHLAAYGQNYLSVVDAVRVELVTRYLKNNERPLSDVAILMGFSSLSAFSRWFATRYGCSVSAWRRQRTAPEIRR”: “not soluble”; for “MGSDKIHHHHHHMERAGLAALEDALRNGLSEPFCKAIETIGQSNGRLIITGVGKSGHIGAKLAATFASTGTPAFFVHAAEANHGDLGMIGGDDVVLAISKGGESAELRSIINYSRRFSIPLIALTCSENSSLARASDIVLLVPNEQEACPLGLAPTTSTLMQLALGDALAVALLEARNFTAGDFKVFHPGGKLGASLTLVSDIMHTGDRVPLVNKGTAMPEAVGVLSRKHFGCVGILDEDGRLCGIVTEGDMARNLSRNLAELVVDDIMTRSPKTVKKSVLATSALATLEKFHIGALIVVDDDNRPIGLVHFHDLLRIGVA”: “not soluble”. The same measure for “AHHHHHHGSIWEEILNFEPYRAVEGNYRIWLDKNESPYDLPPQLKEEILEELKRIEFNRYPHITSDPLREALAEFYGLKKENIAVGNGSDELINYLVKMFKGKYIVVTSPTFGMYSFFAKLHGIPVKDIPLKEDFTIDGERIAEEGKAASAIFIASPNNPTGNSQPENEVLKVLDSGRVVILDEAYSEFSGKSFIPKISEYENLVILRTFSKAFGLAGIRCGYMIANEKIIDALYRILPPYNLNSLTMTVAIKMLEHYDIVKRRIKLIVKERERIRREFIEYSYPSEANFLLMKLDAYDYLLKKGIVVRKLSGRLEGHIRVTIGKKWENDELIKALKEFLEECRCG”: “soluble”; for “MLPNVAVEFDENSIFRSLGKGNLTFREAFEEIIKFIEADTNSSYRISIGTDSHVGNGTLFVTCIHVHRIGKGAIGFLHKSLMSRPIRNLREKIYMETCMSLQLAYLFDEEKIDRIYKALGKNGKSPTKGVTFEFHIDIGKRGETKALINEMVGMVSGLNFIPKIKPDSYCASCFADRYTKAI”: “soluble”; for “MAVPAASSIVSYGGAATSNFLTTPVTPFLAGFYNSNFVTDRINSCAPYRVDRIRKQLQDEEENGYPPADDRRRGALFCRSGTWLEMLPIENPDDGSTRVKVHGTKEESSKFSIVEFVSVAMSLVSIRGVETKNFICMDPSGKLYATPSSNYSTECVFLEEMMENYYNLYASCAYGDRFNPWYIELRRSGKPRRGPNSKKRRKASHFLVVHHDLDRLRSPVPNGNDVTDLVVASLFHQPPSHPLFRQQTVTKPPNPHRISNLRAKVEMTNQAEKQRLLEEKKRRREKKKRRREDRLRKEEQIREARRQELKSLREEELRRRYQQQQQQQASTQTRYNRPQNPANPYPTYRPLPTRSTVQSPRPAYNPYWQSPVTQAPHHNSHHHHHHHPRVSSSSDPQQRHQSQQHYLAQTVSNPNRQNVNYQRYP”: “not soluble”. The same measure for “MGSDKIHHHHHHMCPARLRTPRTASLPTHRRSAMTTANPLNTSFTSADAAELYQVPNWSGGWFRVSDKGLMEATPAPGLHASLRAIVDEIVDRGESLPVILRFPQVLAGRVKHLNEAFQAAINEYNYSGHYQGVFPIKVNQRRAVVETVAAAGYDYAHGLEAGSKAELALCLAQKMHPDALLCCNGFKDDGFIKLALWGRTLGKNVVITIEKFTELDRILKQAKALGVKPAVGVRFKLHARGSGQWEESGGDQAKFGLNAYELLRVVERLKEENMLDSLVMLHTHIGSQITDIRRVKVAVREAAQTYAGLIAAGADLKYLNVGGGLGVDYDGSKTTFYASMNYTVKEYAADIVYTVQEVCKAREVPEPVIVSESGRALTAHHAVLILPVVDVTGPTRNLEDQELTVPGEDSHQIVRDMYETLENISMRNYRESYNDAVGDKQTLHNLFDLGYVTLEDRARGEALFNAILRKIAKLIQGEKYVPDELEDLQKVLADKFICNFSLFQSLPDNWAIGALFPIVPLDRLNEQPTRQATLVDITCDSDGKVEKFIDLRDVKATLPLHEPGDRPYYLGAFLMGAYQDVLGSAHNLFGKVSEAHVTVRPGGRFNIDLFVRGQKARRMIESMGYEEPMLRDAIEDQADAAIGRGTLTQEQEHELLEDYGEELLGYTYLEYES”: “not soluble”; for “MTVTSSAAIDIGGGGGGRRSDRLDSDRTSEDMSFIASPANIGASFVDVQNESSGSIDTATATLHELNYTFGMPPVTEESENMPQNYETVVELLPGEERAPINKLTEFPIEGGSLFVTNFRIVVILKDKEVEEALRFLVFPLQDIEQIDLAIPAFIHLSLKIGRMFTICFKTAEDAALVHKILYTAFQRLNRPISSIYTSRPQDWTSKNTDNPMQSLNAFAWKFSEAVDELDRDGKLPSWLLRADSVAQEITHIDFNRLGMSEHFQISSVNENFEVCPTYPEKIIVPKGITDDDIRKGAPYRSIGRFPAVIWRCRKTRAVLMRSSQPQVGILSWRNPTDEKIIEEAVKASRIEGEEKKQFIIMDARGYTSAFANRARSGGFENTEYYQQAKLEFLGLPNIHAVRGSFNNVRTMLHNLGPNEQLLTSLQTTGWLLNLSNLLVNAANCADHLSKGHSVLVHCSDGWDRTTQVTTLAKIMLDEYYRTVKGFEELIRRDWIAFGHKLYDRQLVAFGNWGTSDERSPVFLQFLEAVRHLQREQPTLFQFTHAYLIKLAKHAYSGLFGSFLFNSHKERREAMEKCKGTLVDIWRFIGPHNEEYVNQSFDEHYTGAVKPQIFSPKEERPLSGCTTPMNTSTSTNLVKSKSSESINSLNVDGSAKESSQQHPTCSTTPSDNTNSLPMSTSFIQQSLYQPKVRGVAAIDRDGVIRFEDDEQAMLRKKNKLRAEEIRRKDEKIEELRRRAVLDTNKVSPGQRQSYSESDVETTGTLERVMSDVSMVDPVNELPHFKPNTTWEGESGHCAYCKKEFNKLSVYVEDRQHHCRNCGRVVCEDCSKNRFSVIEEGKSVQKRACDSCYDSMHETDLKLSRATSLSEMSSFDSFGPSSPPASSTSSSSLNMLASMSPTRPQPIPISCKSSSNSISSPRPSPGEFSRHSSTQAVKG”: “not soluble”. As for “MQVSPHDTSQPKQHAQSLSSASQSEAGKYTDGRETSARWLDDDSIAQRDLWNFIGDELKMGIPDNARIREQKTRYLKNKSYLHDVTLRAEPYMYWIVEQIKQRKMPMELVLLPIVESAFDPSATSSANAAGLWQIIPGTGRNYGLKQNQWYDGRRDVIASTTAALDMMQRLNTMFDGDWLLTVAAYNSGEGRVMQAMKANKAKGKPTNFWALALPRETSIYVPKMLALSDILKNSKKYGVNLPQPNESRALAKVELGQQIELTQAAEMAGLSLNKLKSYNSGYKRNVTAPNGPHYIMVPKAHVEQLKDSLADGDIAAIQPTRLEQTPASQQYKVRSGDTLSAIATRLNVSTKDLQSWNNLRSVGALKVGQTLQVAKASGTNGSITYQVRKGDSLASIAKRHGVNIADVMRWNTVINKNANIQPGDRLTLYVSSNIKPDSLEHHHHHH”, the “soluble on expression in E. coli” value is “soluble”. With “MGRRGMWYPLAAMKGVLEALHQGDYDTAIDLLTRKALFGREREAKEAWLLLAEVYALYGEEGLEKAHHALEEAYALGGLEYDPLYRSLLAELLALEGRPEREVLPLFLPSRDPRVRYHQAQALFYLGRLEEALEALEAGLPPHLAWRAEGLKGRILERLGRHGEAALAYERGAELALGLERYWLLLDAAAMWLEAGEGERALLALKEAEAAVGEEDPEDAATRHYLLARAHLLLGNPGLALEEIRKALALEEESGHKAYGTPLVEGQALLQLGRYEEAMASFREALARADAGERPHVLHEMGVAALDHGAYPEAEEHLRALVREEGYPYLAQAYADLAEALYRQGRYQEAEAAAREAVARGAVAAGELVLGHVAYDLLHLEEALEHYRKAAESAEEGSREWVGAQEMVVDTLAQLGYRFPEEMVRRGQAVLPYLHPADEWHAALTAYVERAQALLREGKRLN” the entry was “soluble”. With “MAHHHHHHMMNMFYRRDFPVSFRYVNDHSKFIGAGSGRGNRKRGMAPNNYTEYLRIMANEANGTGQDTSRVLFIDSEVNYRFTPVQTIVLDAYEPLTRRQQRRLVQQQYSNPFGDVSSRNARRYGAAAARARKMTVRHRAVVSAQHLQDAVDMQQKYTDFLIAEQEGVQLPPEMRNGVQDGHGGDLCHFSKRHPQRSAPSSSSPPHPQQGGSTRGRVSGPLSTPGPSSLADTESDKTPPDGNKDIKEEQQQLSMSCALAVNLEDYSLVALAEMIAEMSASETSVADYIKTEPLIEKVEVPFHGKANYLAPENCDNIDLLNWDEIQVLEKAHGTGVPEMVEETEDHKDFFR” the entry was “not soluble”; with “SADCILVNSQFTAAVFKETFKSLSHIDPDVLYPSLNVTSFDSVVPEKLDDLVPKGKKFLLLSINRYERKKNLTLALEALVQLRGRLTSQDWERVHLIVAGGYDERVLENVEHYQELKKMVQQSDLGQYVTFLRSFSDKQKISLLHSCTCVLYTPSNEHFGIVPLEAMYMQCPVIAVNSGGPLESIDHSVTGFLCEPDPVHFSEAIEKFIREPSLKATMGLAGRARVKEKFSPEAFTEQLYRYVTKLLV”, “soluble”; with “PRKASRKPPREESSATCVLEQPGALGAQILLVQRPNSGLLAGLWEFPSVTWEPSEQLQRKALLQELQRWAGPLPATHLRHLGEVVHTFSHIKLTYQVYGLALEGQTPVTTVPPGARWLTQEEFHTAAVSTAMKKVFRVYQGQ”, “soluble”. With “MGSDKIHHHHHHMIIFFQLSSPYLLDIYHLDILYGMSFIKAIIKKMSGGVLLKIIDTVPFFLKYYESSLAFLKHYYSQYPKIFNEYFAYHCKDTEERHDQSLAKYPESLLAIQQVRRAIIPIIEEVVEEYGRLYQVTFPTEVNLIVGGYGSNAYTHRQIIPDVTFALERLSPKVEHLQAIVAHDFGHVAHNILSSEAGMDWGKVQWDSPLIWLYQEGAAIHFSRQIAPQLPPAMYFSFDAEGEEWLRFFKENTHAVKSAFAHDYVQETSQSMFQEWFSINGGKRFGYNRLGYLVGDLLFQHFTKTKGERNAITAWKEGRFREEVERWFKR” the entry was “not soluble”.

As for “GPGSMVERTADQRIRTTEWEEVQYKFGNRVGKYATNEVELLAQKIADNNLNAPLKAYDPHEEKVMDKVERGGYDTGRAEEEGGPAFDDALPDDDDEALAAFRRKRLAELQRQKEVERFGVLRHVSGADYMTEVTEASSTNWVVAVLIKPGHDNCEALLSVMRVAAQRHRDVKFLSMVSTEAIKNFPDRHLPCVLLYRDKKLENQLTEVASWKGKQNRLSLESVERVLHRYGVIRNTDYDHDDDDDDA”, the “soluble on expression in E. coli” value is “not soluble”.
